Measured values from paper PMC8962522 (2022).

Target: CD44v3 (Homo sapiens, UniProt P16070)
Test: MST

Chain of CD44v3 (P16070 21-649): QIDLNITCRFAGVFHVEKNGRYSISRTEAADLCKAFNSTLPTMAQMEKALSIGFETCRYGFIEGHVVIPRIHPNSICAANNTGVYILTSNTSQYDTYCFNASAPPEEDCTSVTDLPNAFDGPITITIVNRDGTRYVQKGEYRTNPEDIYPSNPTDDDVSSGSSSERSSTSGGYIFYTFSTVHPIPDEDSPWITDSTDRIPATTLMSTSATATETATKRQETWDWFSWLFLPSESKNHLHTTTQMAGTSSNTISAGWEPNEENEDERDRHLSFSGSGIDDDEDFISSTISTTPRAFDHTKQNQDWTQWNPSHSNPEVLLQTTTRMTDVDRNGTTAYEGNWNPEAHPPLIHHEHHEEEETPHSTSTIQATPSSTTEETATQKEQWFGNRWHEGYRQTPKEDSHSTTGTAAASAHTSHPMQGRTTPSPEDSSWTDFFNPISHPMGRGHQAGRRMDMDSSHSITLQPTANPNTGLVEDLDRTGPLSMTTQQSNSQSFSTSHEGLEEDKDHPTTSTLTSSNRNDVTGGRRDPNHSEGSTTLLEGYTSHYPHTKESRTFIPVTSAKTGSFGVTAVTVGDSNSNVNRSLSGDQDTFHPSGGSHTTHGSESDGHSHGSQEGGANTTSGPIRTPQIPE

B1: TrkA (protein)
chain: AAPCPDACCPHGSSGLRCTRDGALDSLHHLPGAENLTELYIENQQHLQHLELRDLRGLGELRNLTIVKSGLRFVAPDAFHFTPRLSRLNLSFNALESLSWKTVQGLSLQELVLSGNPLHCSCALRWLQRWEEEGLGGVPEQKLQCHGQGPLAHMPNASCGVPTLKVQVPNASVDVGDDVLLRCQVEGRGLEQAGWILTELEQSATVMKSGGLPSLGLTLANVTSDLNRKNVTCWAENDVGRAEVSVQVNVSFPASVQLHTAVEMHHWCIPFSVDGQPAPSLRWLFNGSVLNETSFIFTEFLEPAANETVRHGCLRLNQPTHVNNGNYTLLAANPFGQASASIMAAFMDNPFEFNPEDPIPVSFSPVDTNSTSGDPVEKKDETPFGVSVAVG
modifications: NGF
A Kd of 9.47 nM was found for B1 in this work.
